According to IntAct's records for PubMed 18570893:

Molecular target: call3_human CALML3 (UniProt P27482)
Sequence (P27482 whole entry): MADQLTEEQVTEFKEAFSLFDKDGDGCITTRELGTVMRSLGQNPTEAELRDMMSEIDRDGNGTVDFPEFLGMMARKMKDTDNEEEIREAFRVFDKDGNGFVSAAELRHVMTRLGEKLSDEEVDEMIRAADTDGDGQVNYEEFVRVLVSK

effect of a mutation on the interaction: disrupting interaction
Substance: Unconventional myosin-X (Homo sapiens), Q9HD67 F795A
